From article PMC8978092 (Cell, 2022)

Columns and labels:
crystal structure = target: the molecule itself; test: crystal structure
cryo-EM structure = target: the molecule itself; test: cryo-EM structure

Protein	stoichiometry N (crystal structure)	stoichiometry N (cryo-EM structure)
Enterococcus pore-forming toxin 4 (Epx4), residues 32-335, C-terminal His6 (natural protein) SEDNIIGTTTQEIDEHGNVKTIITVKNQQIESYTSTDSGTAKNRSTLTVNANFLNDKYSNELTTILSLNGFIPSGRKFIFPKNNTLKGEMLWPQRYSTAVYNIPLDKSVKITNSTPDNTIRSKEVSNSITYGIGGGIKMEGKQPGANLDANAAITKTISYQQPDYETAKTTSTVTGVNWNTNFTETRDGYTRNSWNPVYGNQMFMYGRYTSNIRNNFTPDYQLSSLITSGFSPSYGLVLRAPKDVKKSRIKVVFARRSETYQQNWDGLNWWGRNFYDTKNPDSLSKVTLTFELDWQNHRVTFIELEHHHHHH	8	–
Enterococcus pore-forming toxin 1 (Epx1), residues 24-345, C-terminal His6 (natural protein) DVQVFADNPVLGTEVTFEKDENGRIVKIISKNQYRITIYNSVDAGDTPNDASVSLDVDFIDDKNSGEMGAVASINTFIPSGLRYVEGYKYKGVTNPIYKNLSAGMLWPKKYRVEVVNIPIDQATKIITATPNNNIKEKQVSDTISYGFGGSVSADGKKPGGSIEANLAYTKTTTYDQPDYETSQIKKTTKEAVWDTSFVETRDGYTPNSWNPVYGNQMFMRGRYSNVSPIDNIKKGGEVSSLISGGFSPKMGVVLASPNGTKKSQFVVRVSRMSDMYIMRWSGTEWGGENEINQNVPKEYNALMYEDVKFEIDWEQRTVRTILEHHHHHH	–	8
